Experimental data reported in US20030166537A1, “Use of GDNF for treating corneal defects” (Biopharm Gesellschaft Zur Biotechnologischen Entwicklung …, priority 1999, published 2003).

Key:
Type in all cases: cell-based
[1] = system: primary rabbit corneal epithelial cells; assay: single cell clonal growth assay (colony formation, clonal proliferation); settings: 250 ng/ml
From the text: In order to evaluate the effect of GDNF on corneal proliferation, recombinant human GDNF was used (R&D, Minneapolis, Minn., USA). For the evaluation of the effect on corneal epithelial proliferaton a single cell clonal growth model was utilized which allows to determine the effect of the given growth factor on both colony formation as well as clonal expansion (Kruse et al., 1991). New Zealand white rabbits were housed and treated according to the ARVO Resolution of Animals in Research and under observation of German Federal Laws and the laws of the State of Baden-Württemberg. Prior to sacrifice with an intravenous overdose of pentobarbital, they received an intramuscular injection of xylazine hydrochloride and ketamine hydrochloride. The details of the clonal growth assay are described in Kruse et al. (1991). 5000 viable cells were seeded in each 16 mm dish in serum-free medium MCDB 151 with a supplement (S) of insulin (5 μg/ml), transferrin (5 μg/ml), selenium (5 ng/ml) and hydrocortisone (5 μg/ml) (all from Sigma, Deisenhofen, Germany). […] This quantification was facilitated by the use of dishes which contained a grit on the bottom which is roughly 2 mm wide (from Sarstedt, Newton, N.C., USA). For data collection the entire surface area of four randomly selected dishes for each condition was screened. Furthermore, the number of cells per colony was determined in 75 randomly selected colonies for each condition. Furthermore, the total number of cells/dish was calculated in order to carry out an evaluation for artemin. In order to stimulate the cellular proliferation, GDNF (50 or 200 ng/ml) or artemin (250 ng/ml) was added to the medium. In order to estimate the rate of proliferation after 12 days (a time when neighbouring colonies started to grow into each other and, therefore, prevented numerical quantification) dishes were fixed in −20° C. methanol and stained with methylene blue.
All experiments examining the effect of GDNF on corneal proliferation were performed in triplicate with cells from different donors. The influence of growth factor on colony formation, colony size and cell number was studied using one-way analysis of variance. […] Student's t-test was employed to determine which differences were significant after analysis of variance.

[2] = system: primary rabbit corneal epithelial cells; assay: in vitro wound healing assay (scratch wound), artemin; settings: 100 ng/ml; within 6 h; control about 20%
Protocol: For in vitro wound healing assays primary corneal epithelial cells and cells from the corneal epithelial cell line were seeded at a density of 5×10^5 onto 60 mm plastic dishes with 2 mm grid (Sarstedt, Numbrecht, Germany) and cultured for 2 days until subconfluency. For experiments with artemin primary cultured rabbit corneal epithelial cells were used. These cells had been isolated with Dispase (1,2 U/ml) and trypsin/EDTA. Rabbit cells had been cultured in medium 500 with additives (Cascade Biologies).
The cell layer was injured under the microscope by inducing several parallel scratches with a soft plastic cell scrubber (Falcon, Becton and Dickinson, Heidelberg, Germany). The tip of the scrubber was cut and measured about 1 mm and consequently the width of the scratch in the cell layer was also about 1 mm. Selected areas in the dishes were marked with a very fine marker pen and consecutive images were taken at different time points at 5×magnification under an inverted phase contrast microscope (Axiovert 25, Zeiss, Jena, Germany) equipped with a video camera. […] For each condition four representative areas were evaluated within three dishes. […] 18 hours later the mean diameter of the same scratch was calculated again and expressed in percent of the diameter at the beginning of the experiment.

[3] = system: FAK, Pyk2, cRaf, MEK1, Erk 1 and 2, Elk, RSK; assay: western blot of phosphorylated intracellular signaling proteins in corneal epithelial cells; settings: 250 ng/ml artemin for 10, 20, 40 and 60 minutes; human corneal epithelial cells

B1: artemin: GDNF family member, also referred to as enovin or neublastin (SEQ ID NO 5) (protein)
chain: CRLRSQLVPVRALGLGHRSDELVRFRFCSGSCRRARSPHDLSLASLLGAGALRPPPGSRPVSQPCCRPTRYEAVSFMDVNSTWRTVDRLSATACGC
modifications: artemin
total number of cells per dish ([1]; control 200±98 cells, p<0.001): significantly increased
total number of colonies ([1]; day 6, control 40±20): 79±38
gap in the cell monolayer filled [2]: 29±8%
phosphorylated Erk 1 and 2 [3]: gradually increased
phosphorylated MEK [3]: increasing amount
